Molecular target: CENP-A nucleosomes reconstituted on an 18 x 601 DNA array (xlCENP-A-myc/H4 tetramer with H2A/H2B dimers) (X. laevis | not stated) (UniProt Q569M3)

centromere localisation (immunofluorescence, FLAG) on sperm nuclei in interphase egg extract immunodepleted of endogenous CENP-C and M18BP1, relative to WT FLAG-M18BP1-L (% of WT levels): 30
Substance: Xenopus laevis M18BP1-L S760D (xlM18BP1-L^S760D-3xFLAG) (natural protein)

— article PMC13021935
